Measured values published in article PMC5041495.

T1: VEGF164 (mouse, UniProt Q00731-2 27-190)
T1 sequence: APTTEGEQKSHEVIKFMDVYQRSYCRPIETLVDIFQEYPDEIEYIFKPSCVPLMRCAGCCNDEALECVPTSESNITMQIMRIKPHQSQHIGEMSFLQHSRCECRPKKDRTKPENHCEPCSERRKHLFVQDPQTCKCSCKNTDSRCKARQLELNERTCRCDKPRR


Key:
[1] = molecular target: T1, VEGF164; assay: BLI
[2] = molecular target: T2, alpha-thrombin (human, UniProt P00734;P00734 328-363;364-622); assay: BLI
[3] = molecular target: T2, alpha-thrombin; assay: BLI; remark: listed apart in the source
[4] = molecular target: MAPK1 (UniProt P28482 1-360); assay: BLI
[5] = molecular target: VEGF165 (human, UniProt P15692-4 27-191); assay: BLI
[6] = molecular target: T2, alpha-thrombin; assay: SPRi
[7] = molecular target: T2, alpha-thrombin; assay: BLI; remark: listed apart in the source

Chain of MAPK1 (P28482 whole entry): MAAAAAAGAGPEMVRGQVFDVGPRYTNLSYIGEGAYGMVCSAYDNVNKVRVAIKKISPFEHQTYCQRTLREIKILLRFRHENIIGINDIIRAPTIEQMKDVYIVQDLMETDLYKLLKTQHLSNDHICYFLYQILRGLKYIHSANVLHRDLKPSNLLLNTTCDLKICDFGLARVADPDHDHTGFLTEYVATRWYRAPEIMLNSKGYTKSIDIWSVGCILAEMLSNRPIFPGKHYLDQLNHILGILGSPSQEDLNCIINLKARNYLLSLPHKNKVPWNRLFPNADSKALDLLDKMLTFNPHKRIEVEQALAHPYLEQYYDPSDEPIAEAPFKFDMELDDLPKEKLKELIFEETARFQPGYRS

Binder | binding result [1] | Kd [2] [pM] | Kd [3] [pM] | binding result [4] | binding result [5] | Kd [6] [pM] | Kd [7] [pM]
GGGAACAAAGCUGAAGUACUUACCC (structured_RNA, 2'-F pyrimidines; PS2 at 3'-phosphate of U17) [AF113-18] | no binding | 1.8 ± 0.2 | 1 ± 0.1 | no binding | no binding | 4.5 ± 0.2 | –
GGGAACAAAGCUGAAGUACUUACCC (structured_RNA, 2'-F pyrimidines (from crystal construct; ST-2 not in material)) [AF113-1] | no binding | – | – | no binding | no binding | – | 1870 ± 36
